A word on the koff: it is the first-order rate constant of dissociation. What is called Kd is the equilibrium constant for the complex coming apart.

For assay [1], the target named is T1, CPXV14-His (His-tagged recombinant cowpox virus Brighton Red CPXV14) (cowpox virus (Brighton Red strain)). Briefly: BLI. A general note: Biolayer interferometry detects binding as a change in optical thickness at a sensor tip.
The target of assay [2] is T1, CPXV14-His (His-tagged recombinant …). The experiment in a line: BLI. This is another data set of the same source.

B1: soluble recombinant murine FcγRIIB (mCD32B) ectodomain (receptor)
chain: THDLPKAVVKLEPPWIQVLKEDTVTLTCEGTHNPGNSSTQWFHNGRSIRSQVQASYTFKATVNDSGEYRCQMEQTRLSDPVDLGVISDWLLLQTPQLVFLEGETITLRCHSWRNKLLNRISFFHNEKSVRYHHYSSNFSIPKANHSHSGDYYCKGSLGRTLHQSKPVTITVQGPKSSRSLP
Take B1: the koff in assay [1] came to 0.00198 s⁻¹. Further, the Kd in assay [2] worked out at 2.94 nM.

The record behind these values is PMC9521928 (2022).
